Substitutions are numbered along the chain they refer to.
B1: D4 (antibody, V domains shown)
VH: EVMLVESGAELVRPGASVKLSCTASGFKIKDSYIHWMIQRPEQGLEWIGRIDPTNGNTNFDPKFRGKATLTTDTSSNTAYLQLSSLTSEDTAVYYCVPNYYGSRYPFSYWGQGTTVTVSS
VL: QIVLTQSPAIMSASPGEKVTMTCSGSSSVSYMHWFQQKPGNSPKIWIYFTSNLASGVPARFSGSGSGTSYSLTISRMEAGDAATYYCQQGSTYPLTFGAGTKLELK
B2: D22 (antibody, human IgG4, V domains shown)
VH: QVQLVQSGAEVKKPGASVKVSCKASVYSFTGYTVNWVRQAPGQRLEWMGLINPYTGGTTYNQKFKGRVTLTIDKSASTAYMELSSLRSEDTAVYYCASSYYSKPYAMDYWGQGTLVTVSS
VL: EIVMTQSPATLSVSPGERATLSCKASQNVHTRVAWYQQKPGQAPRLLIYLASDRRTGIPARFSGSGSGTEFTLTISSLQSEDFAVYYCLQHWTYPLTFGQGTKVEIK
B3: D38 (antibody, human IgG4, V domains shown)
VH: B2 VH with L50M, T55N, K103V
VL: B2 VL with T93N
B4: D36 (antibody, human IgG4, V domains shown)
VH: B2 VH with T55N, Y100R, K103N
VL: B2 VL with R32H, T93N
B5: D27 (antibody, human IgG4, V domains shown)
VH: B2 VH with N52V, T55N, Y100G, K103N
VL: B2 VL with R32N, T93N
B6: D34 (antibody, human IgG4, V domains shown)
VH: B2 VH with T55N, K103R
VL: B2 VL with T93S
B7: D28 (antibody, human IgG4, V domains shown)
VH: B2 VH with T55S, K103R
VL: B2 VL with T93N, Y94S
B8: D40 (antibody, human IgG4, V domains shown)
VH: B2 VH with Y101W, K103N
VL: B2 VL with T93N
B9: D48 (antibody, human IgG4, V domains shown)
VH: B2 VH with Y54S, T55N, K103N, M107N
VL: B2 VL with R32H, T93N
B10: D45 (antibody, human IgG4, V domains shown)
VH: B2 VH with T55N, T59S, Y100I, K103N
VL: B2 VL with T93N, Y94Q
B11: D44 (antibody, human IgG4, V domains shown)
VH: B2 VH with T55N, K103L
VL: B2 VL with T93N
B12: D37 (antibody, V domains shown)
VH: B2 VH with N52A, T55N, S98L, K103N
VL: B2 VL with T93N
B13: D24 (antibody, human IgG4, V domains shown)
VH: B2 VH with Y54K, T55N, Y100L, K103N
VL: B2 VL with T93N
B14: D29 (antibody, human IgG4, V domains shown)
VH: B2 VH with Y54M, T55N, K103N, M107G
VL: B2 VL with T93N, Y94R
B15: D39 (antibody, human IgG4, V domains shown)
VH: B2 VH with T55N, K103N, M107Q
VL: B2 VL with T93N
B16: D41 (antibody, human IgG4, V domains shown)
VH: B2 VH with T55S, Y100P, K103N
VL: B2 VL with T93N, Y94A
B17: D43 (antibody, human IgG4, V domains shown)
VH: B2 VH with Y54T, T55N, T59S, K103N, M107S
VL: B2 VL with L21M, T93N
B18: D23 (antibody, human IgG4, V domains shown)
VH: B2 VH with S28G, T55N, K103N, M107N
VL: B2 VL with R32A, A51R, H91A, T93N
B19: D35 (antibody, human IgG4, V domains shown)
VH: B2 VH with T33L, T55N, K103N
VL: B2 VL with R32A, T93N
B20: D46 (antibody, human IgG4, V domains shown)
VH: B2 VH with T55S, S102V, K103N
VL: B2 VL with T93N
B21: D51 (antibody, human IgG4, V domains shown)
VH: B2 VH with Y54E, T55N, K103N, M107N
VL: B2 VL with T93N
B22: D31 (antibody, human IgG4, V domains shown)
VH: B2 VH with T55N, T59S, K103N, M107A
VL: B2 VL with T93N
B23: D32 (antibody, human IgG4, V domains shown)
VH: B2 VH with T55H, Y100S, K103N
VL: B2 VL with T93N
B24: D25 (antibody, human IgG4, V domains shown)
VH: B2 VH with T33V, T55N, K103N
VL: B2 VL with R32A, T93N
B25: D30 (antibody, human IgG4, V domains shown)
VH: B2 VH with T55N, T59W, Y100M, K103N
VL: B2 VL with T93N
B26: D50 (antibody, human IgG4, V domains shown)
VH: B2 VH with T55N, T59A, K103D, M107N
VL: B2 VL with T93N

Target: T1, human CD40 on cells (human, UniProt P25942 21-277)
T1 sequence (P25942 21-277 limits assumed): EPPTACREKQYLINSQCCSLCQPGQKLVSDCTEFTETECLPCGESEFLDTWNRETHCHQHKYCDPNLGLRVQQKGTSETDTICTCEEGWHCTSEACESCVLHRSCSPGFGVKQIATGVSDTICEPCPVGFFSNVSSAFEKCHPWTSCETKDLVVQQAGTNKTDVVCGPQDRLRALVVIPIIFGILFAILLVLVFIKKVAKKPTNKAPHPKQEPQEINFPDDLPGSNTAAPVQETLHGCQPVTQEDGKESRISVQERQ
Test: cell-based or functional assay

Row | IC50, HEK-Blue CD40L NF-κB activation assay (SEAP), Fc-3*G4S-CD40L stimulus [µg/mL] | Binder
1 | 0.0167 | B1

Target: T1, human CD40 on cells
Test: cell-based or functional assay
Remark: another data set of the same source

Row | IC50, HEK-Blue CD40L NF-κB activation assay (SEAP), antibody as human IgG4 [µg/mL] | Binder
2 | 0.0219 | B2
3 | 0.0156 | B3
4 | 0.0212 | B4
5 | 0.0298 | B5
6 | 0.0338 | B6
7 | 0.0124 | B7
8 | 0.0142 | B8
9 | 0.0307 | B9
10 | 0.0157 | B10
11 | 0.0201 | B11
12 | 0.0211 | B12
13 | 0.0164 | B13
14 | 0.0342 | B14
15 | 0.03 | B15
16 | 0.0194 | B16
17 | 0.0168 | B17
18 | 0.0169 | B18
19 | 0.0233 | B19
20 | 0.0112 | B20
21 | 0.0184 | B21
22 | 0.0139 | B22
23 | 0.0164 | B23
24 | 0.0273 | B24
25 | 0.018 | B25
26 | 0.0142 | B26
